In US20180256699A1 (University of Texas, published 2018):

Key:
Experiment in all cases: ELISA, murine αMβ2 integrin coated, domain serially diluted
[1] = target: RTX985, RTX domain of ACT, residues 985-1706 (Bordetella pertussis, UniProt J7QLC0 985-1706)
Experimental: (§1) To assess non-specific binding, control wells were not coated with αMβ₂ receptor but blocked with M-PBST only.
(§2) Recombinant murine αMβ₂ integrin (R&D Systems) was coated at 1 μg/mL in PBS at 4° C. overnight, and blocked with M-PBST.

[2] = target: CAT400, catalytic domain of ACT, residues 1-400 (Bordetella pertussis, UniProt J7QLC0 1-400)
Experimental: as §1, §2

[3] = target: HP1096*, hydrophobic domain of ACT, residues 399-1096, MBP fusion, acylated (Bordetella pertussis, UniProt J7QLC0 399-1096)
Experimental: as §1, §2

[4] = target: HP1096, hydrophobic domain of ACT, residues 399-1096, MBP fusion, non-acylated (Bordetella pertussis, UniProt J7QLC0 399-1096)
Experimental: as §1, §2

Measured: binding result

B1: Recombinant soluble murine αMβ2 integrin (R&D Systems) (receptor)
chain 1: FNLDTEHPMTFQENAKGFGQNVVQLGGTSVVVAAPQEAKAVNQTGALYQCDYSTSRCHPIPLQVPPEAVNMSLGLSLAVSTVPQQLLACGPTVHQNCKENTYVNGLCYLFGSNLLRPPQQFPEALRECPQQESDIVFLIDGSGSINNIDFQKMKEFVSTVMEQFKKSKTLFSLMQYSDEFRIHFTFNDFKRNPSPRSHVSPIKQLNGRTKTASGIRKVVRELFHKTNGARENAAKILVVITDGEKFGDPLDYKDVIPEADRAGVIRYVIGVGNAFNKPQSRRELDTIASKPAGEHVFQVDNFEALNTIQNQLQEKIFAIEGTQTGSTSSFEHEMSQEGFSASITSNGPLLGSVGSFDWAGGAFLYTSKDKVTFINTTRVDSDMNDAYLGYASAVILRNRVQSLVLGAPRYQHIGLVVMFRENFGTWEPHTSIKGSQIGSYFGASLCSVDMDADGNTNLILIGAPHYYEKTRGGQVSVCPLPRGRARWQCEALLHGDQGHPWGRFGAALTVLGDVNGDKLTDVAIGAPGEQENQGAVYIFYGASIASLSASHSHRIIGAHFSPGLQYFGQSLSGGKDLTMDGLMDLAVGAQGHLLLLRAQPVLRLEATMEFSPKKVARSVFACQEQVLKNKDAGEVRVCLRVRKNTKDRLREGDIQSTVTYDLALDPVRSRIRAFFDETKNNTRRRTQVFGLMQKCETLKLILPDCVDDSVSPIILRLNYTLVGEPLRSFGNLRPVLAMDAQRFFTAMFPFEKNCGNDSICQDDLSITMSAMGLDTLVVGGPQDFNMSVTLRNDGEDSYGTQVTVYYPSGLSYRKDSASQNPLTKKPWFVKPAESSSSSEGHGALKSTTWNINHPIFPANSEVTFNVTFDVDSHASFGNKLLLKAIVASENNMSRTHKTKFQLELPVKYAIYMIVTSDESSIRYLNFTASEMTSKVIQHQYQFNNLGQRSLPVSVVFWIPVQINNVTVWDHPQVIFSQNLSSACHTEQKSPPHSNFRDQLERTPVLNCSVAVCKRIQCDLPSFNTQEIFNVTLKGNLSFDWYIKTSHGHLLLVSSTEILFNDSAFALLPGQESYVRSKTETKVEPYEVHN
chain 2: QECTKYKVSSCRDCIQSGPGCSWCQKLNFTGPGEPDSLRCDTRAQLLLKGCPADDIMDPRSIANPEFDQRGQRKQLSPQKVTLYLRPGQAAAFNVTFRRAKGYPIDLYYLMDLSYSMLDDLNNVKKLGGDLLQALNEITESGRIGFGSFVDKTVLPFVNTHPEKLRNPCPNKEKACQPPFAFRHVLKLTDNSNQFQTEVGKQLISGNLDAPEGGLDAIMQVAACPEEIGWRNVTRLLVFATDDGFHFAGDGKLGAILTPNDGRCHLEDNMYKRSNEFDYPSVGQLAHKLSESNIQPIFAVTKKMVKTYEKLTEIIPKSAVGELSDDSSNVVQLIKNAYYKLSSRVFLDHSTLPDTLKVTYDSFCSNGASSIGKSRGDCDGVQINNPVTFQVKVMASECIQEQSFVIRALGFTDTVTVQVRPQCECQCRDQSREQSLCGGKGVMECGICRCESGYIGKNCECQTQGRSSQELERNCRKDNSSIVCSGLGDCICGQCVCHTSDVPNKEIFGQYCECDNVNCERYNSQVCGGSDRGSCNCGKCSCKPGYEGSACQCQRSTTGCLNARLVECSGRGHCQCNRCICDEGYQPPMCEDCPSCGSHCRDNHTSCAECLKFDKGPFEKNCSVQCAGMTLQTIPLKKKPCKERDSEGCWITYTLQQKDGRNIYNIHVEDSLECVKGPN
notes: extracellular domain; also called αMβ2 receptor; soluble αMβ2 integrin
no binding: all assays above
